{"source": "paper PMC10897158", "binders": {"B1": {"name": "E1 ubiquitin-activating enzyme UBA6 (endogenous), A0AVT1 1-1052 (enzyme)", "chain": "MEGSEPVAAHQGEEASCSSWGTGSTNKNLPIMSTASVEIDDALYSRQRYVLGDTAMQKMAKSHVFLSGMGGLGLEIAKNLVLAGIKAVTIHDTEKCQAWDLGTNFFLSEDDVVNKRNRAEAVLKHIAELNPYVHVTSSSVPFNETTDLSFLDKYQCVVLTEMKLPLQKKINDFCRSQCPPIKFISADVHGIWSRLFCDFGDEFEVLDTTGEEPKEIFISNITQANPGIVTCLENHPHKLETGQFLTFREINGMTGLNGSIQQITVISPFSFSIGDTTELEPYLHGGIAVQVKTPKTVFFESLERQLKHPKCLIVDFSNPEAPLEIHTAMLALDQFQEKYSRKPNVGCQQDSEELLKLATSISETLEEKPDVNADIVHWLSWTAQGFLSPLAAAVGGVASQEVLKAVTGKFSPLCQWLYLEAADIVESLGKPECEEFLPRGDRYDALRACIGDTLCQKLQNLNIFLVGCGAIGCEMLKNFALLGVGTSKEKGMITVTDPDLIEKSNLNRQFLFRPHHIQKPKSYTAADATLKINSQIKIDAHLNKVCPTTETIYNDEFYTKQDVIITALDNVEARRYVDSRCLANLRPLLDSGTMGTKGHTEVIVPHLTESYNSHRDPPEEEIPFCTLKSFPAAIEHTIQWARDKFESSFSHKPSLFNKFWQTYSSAEEVLQKIQSGHSLEGCFQVIKLLSRRPRNWSQCVELARLKFEKYFNHKALQLLHCFPLDIRLKDGSLFWQSPKRPPSPIKFDLNEPLHLSFLQNAAKLYATVYCIPFAEEDLSADALLNILSEVKIQEFKPSNKVVQTDETARKPDHVPISSEDERNAIFQLEKAILSNEATKSDLQMAVLSFEKDDDHNGHIDFITAASNLRAKMYSIEPADRFKTKRIAGKIIPAIATTTATVSGLVALEMIKVTGGYPFEAYKNCFLNLAIPIVVFTETTEVRKTKIRNGISFTIWDRWTVHGKEDFTLLDFINAVKEKYGIEPTMVVQGVKMLYVPVMPGHAKRLKLTMHKLVKPTTEKKYVDLTVSFAPDIDGDEDLPGPPVRYYFSHDTD"}}, "settings_in_all_cases": "remark: other sources report otherwise", "key": {"[1]": {"molecular_target": "T1, E2 ubiquitin-conjugating enzyme USE1 (endogenous, wild type) (human (endogenous in HEK293T, human fibroblasts and iPSC-derived neurons)), Q9H832", "T1 chain": "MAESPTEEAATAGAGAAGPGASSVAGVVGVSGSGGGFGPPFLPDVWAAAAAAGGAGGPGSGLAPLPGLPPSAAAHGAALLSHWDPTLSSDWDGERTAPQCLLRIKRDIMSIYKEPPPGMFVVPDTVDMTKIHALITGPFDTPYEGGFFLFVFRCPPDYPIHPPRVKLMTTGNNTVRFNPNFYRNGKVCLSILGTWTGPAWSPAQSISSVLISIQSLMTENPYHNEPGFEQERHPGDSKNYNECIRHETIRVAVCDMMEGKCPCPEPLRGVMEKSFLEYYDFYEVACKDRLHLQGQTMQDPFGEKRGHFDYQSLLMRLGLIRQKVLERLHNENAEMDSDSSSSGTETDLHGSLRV", "test": "FRET or BRET; FLIM-FRET (two-photon FLIM) in iPSC-derived autonomic neurons of healthy controls; endogenous USE1 (donor, Alexa 488) and UBA6 (acceptor, Alexa 555); lifetime of donor only minus donor and acceptor"}, "[2]": {"molecular_target": "T1, E2 ubiquitin-conjugating enzyme USE1 …", "test": "FRET or BRET; FLIM-FRET (two-photon FLIM) in iPSC-derived autonomic neurons of CCHS patients (PHOX2B polyalanine expansion); endogenous USE1 (donor, Alexa 488) and UBA6 (acceptor, Alexa 555); lifetime of donor only minus donor and acceptor"}, "[3]": {"molecular_target": "T1, E2 ubiquitin-conjugating enzyme USE1 …", "test": "FRET or BRET; FLIM-FRET (two-photon FLIM) in fixed WT and USE1 ΔPolyAla KO HEK293T cells; endogenous USE1 and UBA6 stained, secondary antibodies Alexa 488 (donor, USE1) and Alexa 555 (acceptor, UBA6); lifetime of donor only minus donor and acceptor"}}}
{"binder": "B1", "values": [{"measurement": "difference in fluorescence lifetime (donor only minus donor and acceptor)", "setting": "[1]", "value": 0.253}, {"measurement": "difference in fluorescence lifetime (donor only minus donor and acceptor)", "setting": "[2]", "value": 0.025}, {"measurement": "difference in fluorescence lifetime (donor only to donor and acceptor)", "setting": "[3]", "value": 0.099, "unit": "ns"}]}
